# Laboratory results: the DeepSol protein solubility set
# Assay: soluble on expression in E. coli; label from the status in PepcDB or PDB records
row,Sequence,soluble on expression in E. coli
1,MGSDKIHHHHHHMKSTGNIIADTICRTAELGLTITGASDAGDYTLIEADALDYTSTCPECSQPGVFRHHTHRMLIDLPIVGFPTKLFIRLPRYRCTNPTCKQKYFQAELSCADHGKKVTHRVTRWILQRLAIDRMSVHATAKALGLGWDLTCQLALDMCRELVYNDPHHLDGVYVIGVDEHKWSHNRAKHGDGFVTVIVDMTGHRYDSRCPARLLDVVPGRSADALRSWLGSRGEQFRNQIRIVSMDGFQGYATASKELIPSARRVMDPFHVVRLAGDKLTACRQRLQREKYQRRGLSQDPLYKNRKTLLTTHKWLSPRQQESLEQLWAYDKDYGALKLAWLAYQAIIDCYQMGNKREAKKKMRTIIDQLRVLKGPNKELAQLGRSLFKRLGDVLAYFDVGVSNGPVEAINGRLEHLRGIALGFRNLNHYILRCLIHSGQLVHKINAL,not soluble
2,MGSDKIHHHHHHMKSVGQALENQGRVPRNTNDELIQMILADAQVAEFIKTHQLSQREINISMSKFNQFLIERQKFKNKDSQYIAKGYEPILVMNEGYADVSYLETRELIEAQKKQAISDRINLVNLPKSYRNIRMTDFDINNESRMKAMSQLLDFVETYPSYNHKGLYLYGDMGVGKSYLMAAMARELSERKGVSTTLLHFPSFAIDVKNAISSGTVKDEIDAVKSVPILILDDIGAEQATSWVRDEILQVILQHRMLEELPTFFTSNYSFNDLERKWANIKGSDETWQAKRVMERVRYLAIEFHLEGPNRR,not soluble
3,MGSDKIHHHHHHMKTERLISYLRPGRWPSVWCPGCGNGIVLKAFLEAVDDLALPKEKVAVVSGIGCSSRATGYLDFNTLHTLHGRAIAFATGVKLAKPDFEVVVMGGDGDILSIGGNHFIHACRRNIDITVVIFNNMIYGMTGGQVSSTTPQYYQTSTTPLGAFEKPFDAVEIALSAGATFVARSTVYHYDHLVRVLKKALQHRGISVVDVLTNCHTYFGRYNGMPEPHQMMEYFKNNTCFLERPEEGKIKIGIFREEEKEDFLTVYRRLTRKEGAME,not soluble
4,MGSDKIHHHHHHMKTVTRYACQKCGYQSAKWLGKCPDCAAWNSFVEEVTGGGRKGAASLPAATRPVPICDVASEAETRLSCGISEFDRVLGGGLVSGSLVLIGGDPGIGKSTILLQVMDHLARTAGPVLYVSGEESARQTKMRGERLGIGARELLVLAETSLELILSQVTALAPRALVIDSIQTVFSANLESAPGSVSQVRECAGRLMELAKRNGIPTLLVGHVTKDGSLAGPRVLEHMVDTVLYFEGDPGHAFRILRAVKNRFGSTNEIGVFEMKEGGLSEVRNPSELFLAERPLGVSGSAVVTTIEGSRPLLVELQALVTPSSLGVPRRTTLGVDHNRLALLVAVLDKKVGLHLSGQDIFLNAAGGARLSEPAIDLGMVAALASSHLDKIIDPHTVIVGEVGLAGEVRAITQAETRVREAAKLGFTRAVIPAGSVRQVGDVPGMNVVGVKSLDEALEQLF,not soluble
5,MGSDKIHHHHHHMKVAVIGAKGQLGTDLVDVLKEEFTVYPLTHEDVDVAVSESLEVLRDIHPDVIINTAAYVRVDDAENHAEKAFAVNAIGALNVARISSEIDAVNIYISTDYVFDGEKGEPYVETDKPNPINVYGASKYAGEILTKNYSEKHYVIRVASLYGKAGASGKGGNFVNWVVDMARKGQELRIVADQFMSPTYTKDVALAVREFLKLRPDYGIYHMVNDGYCSWFEFTKAIFEILDWDVEIQPIKSSELNRLARRPAFSALQNYKLERIGIKMRHWREALRDYLAEKGLV,not soluble
6,MGSDKIHHHHHHMKVLFRSDSSSQIGFGHIKRDLVLAKQYSDVSFACLPLEGSLIDEIPYPVYELSSESIYELINLIKEEKFELLIIDHYGISVDDEKLIKLETGVKILSFDDEIKPHHCDILLNVNAYAKASDYEGLVPFKCEVRCGFSYALIREEFYQEAKENREKKYDFFICMGGTDIKNLSLQIASELPKTKIISIATSSSNPNLKKLQKFAKLHNNIRLFIDHENIAKLMNESNKLIISASSLVNEALLLKANFKAICYVKNQESTATWLAKKGYEVEYKY,not soluble
7,MGSDKIHHHHHHMKVLVAMDEFHGIISSYQANRYVEEAVASQIETADVVQVPLFNGRHELLDSVFLWQSGQKYRIPVHDADMNEVEGVYGQTDTGMTVIEGNLFLKGKKPIVERTSYGLGEMIKHALDNDAKHVVISLGGIDSFDAGAGMLQALGAQFYDDEGRVVDMRQGAGVIKYIRRMDMSNLHPKMETARIQVMSDFSSRLYGKQSEIMQTYDAHQLNHNQAAEIDNLIWYFSELFKSELKIAIGPVERGGAGGGIAAVLNGLYQAEILTSHALVDQLTHLENLVEQADLIIFGEGLNENDQLLETTTLRIAELCHKHQKVAIAICATAEKFDLFESQGVTAMFNTFIDMPETYTDFKMGLQIRHYTVQSLKLLKTHFNVEV,not soluble
8,MGSDKIHHHHHHMKVRFLQISDLHFQFQNYDTIVMRDKLLDFIEVLRRESDFDFLLLTGDIAHKGDVYNEDVKEYLNGIIKSMGLSKNNVHLVPGNHDISRDMTRTLLIDSIMKSPNPSEMLDKLDQKATNILVEGQRKFFDFYEDFMGVKYPEEDLHFLYQSEKYNVLSINTCLLSDKKGEEGTLLTAQMKLYKAIRKMNKEKNKGKVLNIAIGHHTLGCIESSERESIKAHFDDYFIDLYLAGHVHDSSFNITANTNENPFLELVSGAIIKDEYATPEFISVDVNLDNGETEVTYYIWNTEYKYWSKNNQGGRRLQEGKLNYKINRLESLIEKEIEDNDDKIDEDEFKSFIIDFHEYRESYKTFTSNFDNQIGLDKKFYDMKSGETFKRKFDSYSEYFGVINHIMDSTSYVSADKKELIAETIVDKYLEFHNQYNNGDEIFVKIVNEIYLECHSVLPYSKALTKKYIKILTCWCIYECEIFNDNKRSVKND,not soluble
9,MGSDKIHHHHHHMKVVIVGNGPGGVELAKQLSEEHEVTIVERETVPYYTKPMLSHYVAGLAEEKSLFPYPIDWYEKKGIKLLLGTTAKRIDAEKKVLETDRGTLEYDVLVLATGAKPRTLKIPGWERMYTLRTIEDAKRLKGAVEREKDLLIIGGGFIGLEIAGNLSKQGIKVKVVEKMTRLMGLDEELTERIKGELEKHGVEFYLGRDVERIENDVLVTDKEEIPARVILCSIGIVPEVSLAKESGLDVNRGILVDKTFRTSKPDIYAIGDCAEHEGIICGTAKAAMAHAKVLANTLKGIPDEYDFHFRSSYFKFGDFPIAIVGELTDRGEWIDSETKSFYRDEKIVGVVVLSDVRKAREWEERLRSTR,not soluble
10,MGSDKIHHHHHHMKYDIPTMTAEAVSLLKSLISIPSISREETQAADFLQNYIEAEGMQTGRKGNNVWCLSPMFDLKKPTILLNSHIDTVKPVNGWRKDPFTPREENGKLYGLGSNDAGASVVSLLQVFLQLCRTSQNYNLIYLASCEEEVSGKEGIESVLPGLPPVSFAIVGEPTEMQPAIAEKGLMVLDVTATGKAGHAARDEGDNAIYKVLNDIAWFRDYRFEKESPLLGPVKMSVTVINAGTQHNVVPDKCTFVVDIRSNELYSNEDLFAEIRKHIACDAKARSFRLNSSRIDEKHPFVQKAVKMGRIPFGSPTLSDQALMSFASVKIGPGRSSRSHTAEEYIMLKEIEEAIGIYLDLLDGLKL,not soluble
11,MGSDKIHHHHHHMKYYYKDGEGFNSKGVFIRVGSTKRVASFDEIQRMIRSHSSNDFELISIDRDDLTFEYIESRFKEKGIKFDVYALSLIGKDNKYNNAALLLSDQNPTISKFAVFQGTDVSVFLDKKEFTGSILKQLDEILYFASLSNRKRITISGKPGREEYLDIPKRALREAIVNCYCHRDYTLSGDVKIEFYDDRVQIFSPGSLPDGLTLENIKMGMVAKRNKIIVNTLDKIDVIENYASGVRRIFEDYADFTKQPEYYISNNGVIVTLFNRNYEAQNEAQNEAQILKLDNQKRIEKILELIKENKNITRSNLKDILGVSKSTIERDISKLKEEDKLEYIGSSRNGYWKVKNN,not soluble
12,MGSDKIHHHHHHMLAGFAAAKAPEIDPALVDTLVAQIMQQADRHAEQSQKPDGQAIRNDAVRRLQTLEVLKNRALKEGLDKDKDVQNRFKIAEASFYAEEYVRFLERSETVSESALRQFYERQIRMIKLQQVSFATEEEARQAQQLLLKGLSFEGLMKRYPNDEQAFDGFIMAQQLPEPLASQFAAMNRGDVTRDPVKLGERYYLFKLSEVGKNPDAQPFELVRNQLEQGLRQEKARLKIDAILEENGVKP,not soluble
13,MGSDKIHHHHHHMLAQVPNTISLQQELTPLLQHEWLPHINQRDYHSGSQGGWDVLALRCAEEYHAAHPILQAFSISAANEWDNLPALESSPTLLDFIQSLACPVKSVRFMRLHAGAEIKPHRDQGLSLEQGEARLHLPLQTHDQLYFYVNDQRVPMQAGELWYINADQSHWVANKGSSARINLVIDCKVNSWLRELIHGAKIKA,not soluble
14,MGSDKIHHHHHHMLDCHEDTLVILAKNIAVEMHYHHAIQLVLSLDKPYDAVLDHQPIESVKGFLIDSDIPHACQSADSTVLVISVDASSSKGRLLKSHLLKRTFILIDELFSAEAIDEFLNFYWRCCDTSQHEFDPLYFLHKLSHEQRNITPFDARLLIAIDFINQDISQIIKVIDIARHISLSESRLRHLFTEQVGIPLTKYVLWVRMKVALREMLKPGVTLSDAAHQAGFTDHAHFTRTFRRMFGVSPSLLLKYGQFLQIFGL,not soluble
15,MGSDKIHHHHHHMLDHLCVNMLSSCPRCASSSGNRASRRYPMRINADFTRRAAVHFDQTDWVPSPAPGVERKMLDRIGAEVARATTIVRFAPGSAFSAHTHDGGEEYLVLDGVFQDELGDFPVGSYVRNPPTSSHTPATEPGATILVKLHQFDPADRTEVRRSINGKSDETLFSDSHEEVRLESWAAGAQVTRDLPGGIEVFVLEGGFQEGGETFSRWDWLRLPPGARLDLTAGAEGARVWVKSGHLAAMV,not soluble
16,MGSDKIHHHHHHMLDRKLLESLGGWQGYGVERVEWPEDPGRTLSIYLKPTAKVMLCEQCGARCRQVHETTVRRVRDLPLFEYRVVLHVPRRRLWCEQCGGPRLERLAWLGRYQRVTDRLAQACSQLLQSSNVQAVARFFELGWHTVKTLDKARLRASVREPDWSKIEYLAMDEFALHKGHRYATVVVDPIGRQVLWIGPGRSRETARAFFEQLPPGAAQRIKAVAIDMTTAYELEIQAHSPQAEIVYDLFHVVAKYGREVIDRVRVDQANQLRQDRPARRIIKSSRWLLLRNRDNLDRQQAVRLDELLQANQPLLTVYVLRDELKRLWFYQRPAWARQAWNHWYEQAEQSGIAALNTFAQRLKGYLHGILARCRHPLNTSIVEGINNTIKVIKRRAYGYRDQEYFFLKIRAAFPGNAR,not soluble
17,MGSDKIHHHHHHMLEELRTLVLFAEEGSIQNVARRLPLTQPAVTRQMQRLEDMLATTLLDRRQKPPRLTAAGLEVLARAKDILASVEALKAFAADAEPQGVLRVGLAHGLSDASIAGAIAGAAAAFPKISLRLKTGWSAELIEQFERGQLDMAIVLRPADHQGPDALGTERLCIIAQAGAHLTDARVPMPWVLSPEPCDARQTLLSSLGGERHPLIVAAEIQDPAMQMEWVRRGHGLGLMPLRLAARGLPDGLALVDLEDVDLSLQVVALRSPHLNRLAKAVEAIAQTVGEAIKIEA,not soluble
